From paper PMC8248410 (Chemmedchem, 2021)
The star is where a group is joined. Biotin = O=C1N[C@H]2[C@H](CS[C@H]2CCCCC(=O)*)N1; Ahx = NCCCCCC(=O)O

Biological target: gp120_(HxBc2) (HIV-1 (HxBc2), UniProt P04578 33-511)
Assay: cell-based or functional assay

Binder	IC50 of inhibition of HIV-1 NL4-3 infection of CEMx174 SEAP reporter cells [nM]
Ac-LCDCPNGPWVWVPAFCQAVG-OH (cysteine pairing not given here) [P6‐2]	2630
{Biotin-Ahx}-LCDCPNGPWVWVPAFCQAVG-OH (cysteine pairing not given here) [P6‐2(Bio)]	1240
